Legend:
[1] = target: T1, tropomyosin-related kinase A (TrkA) receptor (human, UniProt P04629-2 33-790, phosphotyrosine at 490 (Y490) and at 785 (Y785) after treatment of the cells with NGF); assay: cell-based or functional assay
[2] = target: T1, tropomyosin-related kinase A (TrkA) …; assay: cell-based or functional assay; remark: listed apart in the source

T1 sequence (P04629 other isoform, or with tags, fused parts or gaps): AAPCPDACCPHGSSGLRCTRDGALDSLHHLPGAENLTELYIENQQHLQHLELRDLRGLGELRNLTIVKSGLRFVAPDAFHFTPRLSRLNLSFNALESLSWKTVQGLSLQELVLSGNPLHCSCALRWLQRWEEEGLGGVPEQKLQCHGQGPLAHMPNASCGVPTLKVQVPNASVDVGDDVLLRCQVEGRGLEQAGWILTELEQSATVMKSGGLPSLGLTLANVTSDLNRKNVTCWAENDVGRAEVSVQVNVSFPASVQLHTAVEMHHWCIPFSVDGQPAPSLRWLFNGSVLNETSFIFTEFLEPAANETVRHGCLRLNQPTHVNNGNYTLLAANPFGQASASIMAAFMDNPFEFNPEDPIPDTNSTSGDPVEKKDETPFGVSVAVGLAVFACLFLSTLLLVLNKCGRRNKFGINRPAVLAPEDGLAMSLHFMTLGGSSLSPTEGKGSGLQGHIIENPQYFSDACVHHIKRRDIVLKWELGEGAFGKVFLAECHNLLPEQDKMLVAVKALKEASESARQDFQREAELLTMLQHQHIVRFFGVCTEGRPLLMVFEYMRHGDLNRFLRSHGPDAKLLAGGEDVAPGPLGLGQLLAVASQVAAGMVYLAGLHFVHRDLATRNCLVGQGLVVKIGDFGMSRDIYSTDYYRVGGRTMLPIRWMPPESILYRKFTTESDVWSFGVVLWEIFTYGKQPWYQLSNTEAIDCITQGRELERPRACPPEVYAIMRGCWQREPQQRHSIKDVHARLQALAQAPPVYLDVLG

plateau of the second activation phase at around 10 μg/ml NGF-K95A/Q96A in U2OS-TrkA/p75-SHC1 cells, relative to wild-type NGF (interaction between TrkA and SHC1, enzyme fragment complementation) [1]: ~300%
second activation phase EC50 of NGF-K95A/Q96A in U2OS-TrkA/p75-SHC1 cells (interaction between TrkA and SHC1, enzyme fragment complementation) [1]: ~3 µg/mL
EC50 of NGF-K95A/Q96A added to U2OS-TrkA/p75-SHC1 cells for the interaction between TrkA and SHC1 (enzyme fragment complementation, chemiluminescence) [2]: 0.02 µg/mL
EC50 of NGF-R100E added to U2OS-TrkA/p75-SHC1 cells for the interaction between TrkA and SHC1 (enzyme fragment complementation, chemiluminescence) [2]: 0.00056 µg/mL
EC50 of NGF-W99A added to U2OS-TrkA/p75-SHC1 cells for the interaction between TrkA and SHC1 (enzyme fragment complementation, chemiluminescence) [2]: 0.023 µg/mL
EC50 of wild-type NGF added to U2OS-TrkA/p75-SHC1 cells for the interaction between TrkA and SHC1 (enzyme fragment complementation, chemiluminescence) [2]: 0.0042 µg/mL
B1: Src homology 2 domain containing transforming protein 1 (SHC1) (natural protein, UniProt P29353 1-583, looked up)
chain: MDLLPPKPKYNPLRNESLSSLEEGASGSTPPEELPSPSASSLGPILPPLPGDDSPTTLCSFFPRMSNLRLANPAGGRPGSKGEPGRAADDGEGIVGAAMPDSGPLPLLQDMNKLSGGGGRRTRVEGGQLGGEEWTRHGSFVNKPTRGWLHPNDKVMGPGVSYLVRYMGCVEVLQSMRALDFNTRTQVTREAISLVCEAVPGAKGATRRRKPCSRPLSSILGRSNLKFAGMPITLTVSTSSLNLMAADCKQIIANHHMQSISFASGGDPDTAEYVAYVAKDPVNQRACHILECPEGLAQDVISTIGQAFELRFKQYLRNPPKLVTPHDRMAGFDGSAWDEEEEEPPDHQYYNDFPGKEPPLGGVVDMRLREGAAPGAARPTAPNAQTPSHLGATLPVGQPVGGDPEVRKQMPPPPPCPGRELFDDPSYVNVQNLDKARQAVGGAGPPNPAINGSAPRDLFDMKPFEDALRVPPPPQSVSMAEQLRGEPWFHGKLSRREAEALLQLNGDFLVRESTTTPGQYVLTGLQSGQPKHLLLVDPEGVVRTKDHRFESVSHLISYHMDNHLPIISAGSELCLQQPVERKL

Reference: PMC6899756, “Identification of amino acid residues of nerve growth factor important for neurite outgrowth in human dorsal root ganglion neurons” (The European Journal of Neuroscience, 2019)
